Laboratory results as given in patent publication US20010010923A1, “MODIFIED CARBOXYPEPTIDASE” (priority 1997, published 2001).
Positions count from the first letter of the chain named. Names may count otherwise. Marks after values point to notes of the source that are not given here.

Legend:
Assay type in all cases: biochemical
[1] = Transpeptidation of Bz-G-A-R-A-R-X-OH at pH 7.5 at 50% substrate consumption, Table 4; set-up: key to fa: fraction: aminolysis product / sum of all products formed; conditions: for fa / t: 50% substrate consumption; for t: 375 mM H-Leu-NH2, 2 mM substrate, [E] 0.1 mg/mL
Protocol: Transamidation reactions were carried out generally as described in PCT Application WO 95/20039. In general, the method included dissolving the nucleophile (H-Leu-NH2, unless otherwise indicated) in 50 mM HEPES, 5 mM EDTA and adjusting the pH to 7.5, 5 μl of peptide substrate (8 mM Bz-G-A-R-A-R-A-OH, unless otherwise indicated, in methanol) was added to 190 μl nucleophile solution followed by 5 μl enzyme, resulting in a substrate concentration of 0.2 mM.
(§1) During the reaction, 20 μl aliquots were removed from the reaction mixture and added to 50 μl 1% trifluoroacetic acid to quench the reaction. The reactant composition was determined by HPLC using a Waters HPLC equipped with a C-18 Waters Novapac 4μ reverse phase column and various gradients of acetonitrile in 0.1% trifluoroacetic acid. The separation was monitored at 254 nm allowing the direct quantification of the products from the integrated peak areas. The composition of the reaction mixture was determined at least twvice during the reaction, the first when 20-50% (preferably 35%) of the substrate had been consumed in the reaction and the second time when 50-90% (preferably 80%) of the peptide substrate had been consumed.
The fraction of aminolysis (fa) was expressed as the ratio between the formed aminolysis product and the sum of all products formed. Unconsumed substrate was disregarded in the calculations.
Site specific mutagenesis was performed as described for Example 1 to generate the specific mutants described below. Transamidation reactions were performed as described for Examples 1.

[2] = Transpeptidation of Bz-G-A-R-A-R-X-OH at pH 6.5 at 50% substrate consumption, Table 5; set-up: key to fa: fa = aminolysis product / sum of all products formed; conditions: for Pmax (peak product yield) / fa: 750 mM H-Leu-NH2; for fa / t: 50% substrate consumption; for t: 750 mM H-Leu-NH2, 2 mM substrate, [E] 0.1 mg/mL
Protocol: Transamidation reactions were carried out generally as described in PCT Application WO 95/20039. In general, the method included dissolving the nucleophile (H-Leu-NH2, unless otherwise indicated) in 50 mM HEPES, […], 5 μl of peptide substrate (8 mM Bz-G-A-R-A-R-A-OH, unless otherwise indicated, in methanol) was added to 190 μl nucleophile solution followed by 5 μl enzyme, resulting in a substrate concentration of 0.2 mM.
as §1
The fraction of aminolysis (fa) was expressed as the ratio between the formed aminolysis product and the sum of all products formed. Unconsumed substrate was disregarded in the calculations. […]

[3] = Transpeptidation of FA-Ala-Xaa-OH with H-Gly-NH2, Table 2; conditions: for Fraction of aminolysis (fa), P1' Ala: FA-Ala-Ala-OH 0.2 mM; for Fraction of aminolysis (fa), P1' Ala / Fraction of aminolysis (fa), P1' Leu / Fraction of aminolysis (fa), P1' Met / Fraction of aminolysis (fa), P1' Phe / Fraction of aminolysis (fa), P1' Val: 1.9 M H-Gly-NH2, pH 7.5, room temperature; for Fraction of aminolysis (fa), P1' Leu: FA-Ala-Leu-OH 0.2 mM; for Fraction of aminolysis (fa), P1' Met: FA-Ala-Met-OH 0.2 mM; for Fraction of aminolysis (fa), P1' Phe: FA-Ala-Phe-OH 0.2 mM; for Fraction of aminolysis (fa), P1' Val: FA-Ala-Val-OH 0.2 mM; for fraction of aminolysis compared to wild type, in words: larger, hydrophobic leaving group such as leucine
Procedure, shortened: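 Enzyme reacted with 0.2 mM peptide substrate and nucleophile in 50 mM HEPES, 5 mM EDTA, pH 7.5; aliquots quenched in 1% TFA. Products quantified by reverse-phase HPLC at 254 nm at two conversion points (20-50% and 50-90% substrate consumed). Fraction of aminolysis = aminolysis product over all products, ignoring unconsumed substrate.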

[4] = Transpeptidation of FA-Ala-OBzl with H-Leu-NH2, Table 3; conditions: FA-Ala-OBzl 0.2 mM, pH 7.5; for fa: H-Leu-NH2; for KN(app): nucleophile H-Leu-NH2 concentration at which fa is half of maximum
Procedure, shortened: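 Site-directed mutant enzymes were reacted with H-Leu-NH2 in 50 mM HEPES, 5 mM EDTA, pH 7.5, with acyl-donor substrate at 0.2 mM final. Products were quantified by C-18 RP-HPLC at 254 nm at about 35% and 80% substrate consumption. fa is aminolysis product over all products; famax is fa at nucleophile saturation, and KN(app) is the nucleophile concentration giving famax/2.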

[5] = leaving group A, 375 mM H-Leu-NH2
[6] = leaving group I, 375 mM H-Leu-NH2
[7] = leaving group L, 375 mM H-Leu-NH2
[8] = leaving group M, 375 mM H-Leu-NH2
[9] = leaving group V, 375 mM H-Leu-NH2

B1: N51Q + L178S + M398L: carboxypeptidase Y mutant N51Q + L178S + M398L (protein, UniProt P00729 112-532, looked up, variant N51Q L178S M398L)
Carboxypeptidase Y: KIKDPKILGIDPNVTQYTGYLDVEDEDKHFFFWTFESRNDPAKDPVILWLQGGPGCSSLTGLFFELGPSSIGPDLKPIGNPYSWNSNATVIFLDQPVNVGFSYSGSSGVSNTVAAGKDVYNFLELFFDQFPEYVNKGQDFHIAGESYAGHYIPVFASEILSHKDRNFNLTSVLIGNGSTDPLTQYNYYEPMACGEGGEPSVLPSEECSAMEDSLERCLGLIESCYDSQSVWSCVPATIYCNNAQLAPYQRTGRNVYDIRKDCEGGNLCYPTLQDIDDYLNQDYVKEAVGAEVDHYESCNFDINRNFLFAGDWMKPYHTAVTDLLNQDLPILVYAGDKDFICNWLGNKAWTDVLPWKYDEEFASQKVRNWTASITDEVAGEVKSYKHFTYLRVFNGGHLVPFDVPENALSMVNEWIHGGFSL
[1]
  fraction of aminolysis for leucine as a leaving group, in words: improved
[1]; [5]
  Pmax (peak product yield): >0.67
  fa: 0.87
[1]; leaving group A
  t: 24 min
[1]; [6]
  fa: 0.82
[1]; leaving group I
  t: 129 min
[1]; [7]
  Pmax (peak product yield): >0.73
  fa: 0.76
[1]; leaving group L, 375 mM H-Leu-NH2, listed as N51Q+L178S+M398L
  Pmax (peak product yield): 0.73
[1]; leaving group L
  t: 52 min
[1]; [8]
  fa: 0.75
[1]; leaving group M
  t: 84 min
[1]; [9]
  fa: 0.82
[1]; leaving group V
  t: 168 min
[2]; leaving group A
  Pmax (peak product yield): 0.70
  fa: 0.91
  t: 194 min
[2]; leaving group L
  Pmax (peak product yield): 0.80
  fa: 0.84
  t: 36 min

B2: T60C: carboxypeptidase Y S1' mutant, substitution T60C (protein, UniProt P00729 112-532, looked up, variant T60C)
Carboxypeptidase Y: B1 Carboxypeptidase Y with Q51N, T60C, S178L, L398M
[3]
  Fraction of aminolysis (fa), P1' Ala: 0.92
  Fraction of aminolysis (fa), P1' Leu: 0.19
  Fraction of aminolysis (fa), P1' Met: 0.15
  Fraction of aminolysis (fa), P1' Phe: 0.08
  Fraction of aminolysis (fa), P1' Val: 0.27
[4]
  fa: 0.98^a

B3: T60D + M398Y: carboxypeptidase Y double substitution mutant T60D + M398Y (protein, UniProt P00729 112-532, looked up, variant T60D M398Y)
Carboxypeptidase Y: B1 Carboxypeptidase Y with Q51N, T60D, S178L, L398Y
[3]
  Fraction of aminolysis (fa), P1' Ala: 0.70
  Fraction of aminolysis (fa), P1' Leu: 0.75
  Fraction of aminolysis (fa), P1' Met: 0.72
  Fraction of aminolysis (fa), P1' Phe: 0.56
  Fraction of aminolysis (fa), P1' Val: 0.71
  fraction of aminolysis compared to wild type, in words: further improved the fraction of aminolysis
[4]
  fa: 0.89^a
  KN(app): 9.2^c mM

B4: M398R: carboxypeptidase Y S1' mutant, substitution M398R (protein, UniProt P00729 112-532, looked up, variant M398R)
Carboxypeptidase Y: B1 Carboxypeptidase Y with Q51N, S178L, L398R
[3]
  Fraction of aminolysis (fa), P1' Ala: 0.48
  Fraction of aminolysis (fa), P1' Leu: 0.16
  Fraction of aminolysis (fa), P1' Met: 0.33
  Fraction of aminolysis (fa), P1' Phe: 0.11
  Fraction of aminolysis (fa), P1' Val: 0.26
[4]
  fa: 0.39^b
  KN(app): 9.9^c mM

B5: T60E: carboxypeptidase Y S1' mutant, substitution T60E (protein, UniProt P00729 112-532, looked up, variant T60E)
Carboxypeptidase Y: B1 Carboxypeptidase Y with Q51N, T60E, S178L, L398M
[3]
  Fraction of aminolysis (fa), P1' Ala: 0.82
  Fraction of aminolysis (fa), P1' Leu: 0.05
  Fraction of aminolysis (fa), P1' Met: 0.07
  Fraction of aminolysis (fa), P1' Phe: 0.02
  Fraction of aminolysis (fa), P1' Val: 0.33
[4]
  fa: 0.94^a
  KN(app): 2.0^b mM

B6: N51Q + L178S: carboxypeptidase Y mutant N51Q + L178S (S1' and S1 subsites) (protein, UniProt P00729 112-532, looked up, variant N51Q L178S)
Carboxypeptidase Y: B1 Carboxypeptidase Y with L398M
[1]; [5]
  Pmax (peak product yield): 0.60
  fa: 0.72
[1]; leaving group A
  t: 34 min
[1]; [6]
  fa: 0.62
[1]; leaving group I
  t: 211 min
[1]; [7]
  Pmax (peak product yield): 0.18
  fa: 0.20
[1]; leaving group L
  t: 23 min
[1]; [8]
  fa: 0.51
[1]; leaving group M
  t: 211 min
[1]; [9]
  fa: 0.62
[1]; leaving group V
  t: 194 min
[2]; leaving group A
  Pmax (peak product yield): 0.78
  fa: 0.87
  t: 31 min
[2]; leaving group L
  Pmax (peak product yield): 0.26
  fa: 0.28
  t: 19 min

B7: T60F: carboxypeptidase Y S1' mutant, substitution T60F (protein, UniProt P00729 112-532, looked up, variant T60F)
Carboxypeptidase Y: B1 Carboxypeptidase Y with Q51N, T60F, S178L, L398M
[3]
  Fraction of aminolysis (fa), P1' Ala: 0.85
  Fraction of aminolysis (fa), P1' Leu: 0.17
  Fraction of aminolysis (fa), P1' Met: 0.21
  Fraction of aminolysis (fa), P1' Phe: 0.12
  Fraction of aminolysis (fa), P1' Val: 0.15
[4]
  fa: 0.98^a

B8: T60Y + M398Y: carboxypeptidase Y double substitution mutant T60Y + M398Y (protein, UniProt P00729 112-532, looked up, variant T60Y M398Y)
Carboxypeptidase Y: B1 Carboxypeptidase Y with Q51N, T60Y, S178L, L398Y
[3]
  Fraction of aminolysis (fa), P1' Ala: 0.74
  Fraction of aminolysis (fa), P1' Leu: 0.77
  Fraction of aminolysis (fa), P1' Met: 0.76
  Fraction of aminolysis (fa), P1' Phe: 0.75
  Fraction of aminolysis (fa), P1' Val: 0.74
  fraction of aminolysis compared to wild type, in words: further improved the fraction of aminolysis
[4]
  fa: 0.99^a
  KN(app): 5.4^b mM
